B1: VH:VL chains; a variant is named by its letters at X, in order (parent)
chain 1: QVQLVQSGAEVKKPGASVKVSCKASGYTFTDYXMHWVRQAPGQGLEWMGXVNPNXXXTTYNQKFEGRVTMTTDTSTSTAYMELRSLRSDDTAVYYCARXNXLDXWGQGTTVTVSS
chain 2: DIQMTQSPSSLSASVGDRVTITCSVSSSVSSIYLHWYQQKPGKAPKLLIYSTSNLASGVPSRFSGSGSGTDFTLTISSLQPEDFATYYCQVYSGYPLTFGGGTKVEIK

This data set covers variants of B1. The experiment in a line: yeast display scFab, FACS + sequencing. In a few lines: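 Non-specific binding was called from deep sequencing of sorted yeast cells displaying a heavy-chain CDR mutant scFab library. Cells labelled with anti-Myc and biotinylated ovalbumin (260 μg/mL in PBSB, 3 h, room temperature) or soluble membrane proteins (130 μg/mL, 20 min on ice) were FACS-sorted, collecting the top 25% and bottom 10% of binders from two replicates. A sequence was positive when present in ≥3 of 4 pooled positive samples and absent from all negatives, and negative under the converse rule.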
As for YKGRGSVD, the non-specific binding call is “binds”.
As for VRRRGAVV, the entry is “binds”; as for YRRRGDGD, “binds”.
As for YRRRGSWS, the non-specific binding call was “binds”.
For YAKADSGA, the non-specific binding call is “binds”.
Consider VKGKGAWD, for which the non-specific binding call is “binds”.
As for VKRGSSSD, the entry is “binds”.
Regarding STAESDVA, the non-specific binding call is given as “no binding”.
As for AAGGNAWS chain 1 G66S, the entry is “no binding”; as for YRGTGAGV, “binds”; as for VRGKGSGV, “binds”.
The result for FRKGGSGV reads “binds”.
The result for SRGKGDAD reads “no binding”; that for YRRRGDAA, “binds”.
Turning to VEGTSASV, the non-specific binding call is given as “no binding”.
In the case of AETKGDGV, the non-specific binding call was “no binding”.
As for VTGRGDVF, the non-specific binding call was “no binding”.
The result for DATGGDVV reads “no binding”.
As for FRGRGALA, the entry is “binds”; as for FRGRGALF, “binds”; as for YKTKSDGV, “no binding”.
As for VEEAAAGV, the entry is “no binding”.
Take YREKAAWA: the non-specific binding call was “binds”.
As for VEGGADVF, the non-specific binding call is recorded as “no binding”.
As for DARADSGV, the entry is “no binding”.
Turning to VEGTSSSV, the non-specific binding call was “no binding”.
As for VTGEDSLV, the entry is “no binding”.
As for DAERTDGV, the entry is “no binding”; as for SAKRDSAS, “no binding”; as for FRGRGAAY, “binds”.
The result for YRARGALV reads “binds”; that for FKAKGAWD, “binds”; that for YRRGGAWY, “binds”.
As to FRGGDSAD, the non-specific binding call was “binds”.
The result for VREGAAAV reads “no binding”.
As for SRTGSDVD, the entry is “no binding”; as for FERTSVWF chain 1 L45F, “binds”.
As for FKGEGDGV, the entry is “no binding”.
For YRARGSAV, the non-specific binding call is on record as “binds”.
For DTGTSDLY, the non-specific binding call is on record as “no binding”.
As for YREKDSAD, the non-specific binding call is given as “no binding”.
Consider VRGRGYAA, for which the non-specific binding call was “binds”.
On to YRKRGAGA, for which the non-specific binding call is recorded as “binds”.
As for YREGGAGV, the entry is “binds”; as for YRGRASVV, “binds”.
The result for YRRGSSSA reads “binds”; that for VKAGGDVY, “no binding”; that for SEGRGAAA, “no binding”.
The result for VKEKGDLA reads “no binding”; that for DEAKAAVD, “binds”.
On to VETEGSSV, for which the non-specific binding call is “no binding”.
As for YRGKAAGD, the entry is “binds”; as for VAREGDLA, “no binding”; as for VTGGDSGD, “no binding”.
As for DRTTNAGD, the non-specific binding call is reported as “no binding”.
The result for YRGRGVGY reads “binds”.
Take DTTGSASD: the non-specific binding call was “no binding”.
As for DTTGSASF, the entry is “no binding”; as for YTGTGSGA, “no binding”; as for YAKRDALA, “no binding”.
As for DAGTDAGD, the entry is “no binding”; as for VRGRGVGY, “binds”.
As for YRRGSSLY, the entry is “binds”.
Regarding VRARGAWF, the non-specific binding call was “binds”.
As for FKGKGSAD, the entry is “binds”; as for YKRGSSGA, “binds”.
As for VRGGDDGS, the entry is “no binding”; as for SRGGAAWA, “binds”; as for SEARSDVF, “no binding”.
As for DKEEADGV, the entry is “no binding”; as for VKGKGDWV, “no binding”; as for YREGGDGA, “no binding”.
Turning to YKRGDDGD, the non-specific binding call was “no binding”.
Regarding YTGTSDWY, the non-specific binding call was “no binding”.
As for FRTGDDGA, the entry is “no binding”.
The result for FRGTGFVD reads “binds”.
Turning to VTERDDAV, the non-specific binding call is “no binding”.
The result for DAGTGSWD reads “no binding”; that for YRKKGDLA, “binds”; that for YKRGDSGF, “no binding”.
On to DARGGDGS, for which the non-specific binding call is “no binding”.
Turning to DETEGDVF, the non-specific binding call was “no binding”.
As for FAGRGVGD, the entry is “binds”; as for AETKGAVA, “no binding”.
As for YRRRGFVV, the entry is “binds”; as for YRRGGVGA, “binds”; as for DTGGDAGV, “no binding”.
On to VGGTSALD, for which the non-specific binding call was “no binding”.
As for SKTKSDVV, the entry is “no binding”; as for VTTKSDGA, “no binding”; as for YRRRGFGA, “binds”.
As for YRGRGSAY, the entry is “binds”; as for YKGRGAAS, “binds”.
For SKGKGAVA, the non-specific binding call was “binds”.
As for AARADDAA, the entry is “no binding”.
The result for YRAKGSVD reads “binds”.
As for YRKEGAAA, the entry is “binds”; as for YKRRDASD, “binds”.
Take FRTKGAWV: the non-specific binding call is given as “binds”.
The result for YRARGVGA reads “binds”; that for SEARSYAV, “no binding”.
The result for YKGKGFGF reads “binds”; that for ARAGGSVV, “no binding”.
As for DEEEGSAA, the entry is “no binding”; as for YAARGSAA, “binds”.
YEKETVVA: the non-specific binding call is “binds”.
The result for VRRGSSAS reads “binds”.
As for VGGRGDGS, the entry is “no binding”.
The result for VTTKSAGV reads “no binding”.
For the variant YRKGGSVS, the non-specific binding call was “binds”.
As for VRAGAAGS, the entry is “no binding”; as for SEEEGDVA, “no binding”.
As for YKGKGSWA, the entry is “binds”; as for YEKGGDGA, “no binding”.
The result for VRTEDAWV reads “no binding”; that for DREGDAVA, “no binding”; that for YTTGGAVA, “no binding”.

(Values after the emibetuzumab library of Makowski et al. (2022).)
